This passage reports ND50, inhibition of Wnt3a-induced TCF reporter luciferase activity in Fzd8:CHOK1 cells, TCF/LEF reporter (TOPFlash) luciferase activity, normalized to Renilla luciferase and Wnt8a mediated SOX9 mRNA reduction in primary chondrocytes, rescue by Fzd8 siRNA (quantitative PCR) results from patent publication US20090311243A1.

In test [1] the target is recombinant Wnt3a protein (R&D systems). In words: cell-based or functional assay.
A further test concerns the target human Fzd8 (human) (UniProt Q9H461). In words: cell-based or functional assay.
UniProt Q9H461, sequence (Q9H461 28-694): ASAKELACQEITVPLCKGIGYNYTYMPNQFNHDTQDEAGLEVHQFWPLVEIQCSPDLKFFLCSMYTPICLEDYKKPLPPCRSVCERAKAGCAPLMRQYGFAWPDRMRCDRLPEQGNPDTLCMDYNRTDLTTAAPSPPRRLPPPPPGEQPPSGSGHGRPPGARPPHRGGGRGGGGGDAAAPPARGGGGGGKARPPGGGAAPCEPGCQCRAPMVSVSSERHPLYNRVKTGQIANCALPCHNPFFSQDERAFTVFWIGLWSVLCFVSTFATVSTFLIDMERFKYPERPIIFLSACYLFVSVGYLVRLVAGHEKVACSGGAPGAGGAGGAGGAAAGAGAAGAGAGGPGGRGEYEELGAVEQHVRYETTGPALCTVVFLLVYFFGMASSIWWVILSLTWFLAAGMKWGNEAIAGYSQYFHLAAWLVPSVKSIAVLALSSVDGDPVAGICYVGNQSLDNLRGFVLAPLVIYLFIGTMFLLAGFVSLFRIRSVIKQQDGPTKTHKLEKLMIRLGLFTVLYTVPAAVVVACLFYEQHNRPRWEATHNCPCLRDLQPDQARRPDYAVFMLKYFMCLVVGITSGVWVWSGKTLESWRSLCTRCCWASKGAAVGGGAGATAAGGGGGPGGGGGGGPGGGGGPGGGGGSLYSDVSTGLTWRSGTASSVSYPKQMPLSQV

recombinant Wnt3a protein (R&D systems), sequence (P27467 19-352): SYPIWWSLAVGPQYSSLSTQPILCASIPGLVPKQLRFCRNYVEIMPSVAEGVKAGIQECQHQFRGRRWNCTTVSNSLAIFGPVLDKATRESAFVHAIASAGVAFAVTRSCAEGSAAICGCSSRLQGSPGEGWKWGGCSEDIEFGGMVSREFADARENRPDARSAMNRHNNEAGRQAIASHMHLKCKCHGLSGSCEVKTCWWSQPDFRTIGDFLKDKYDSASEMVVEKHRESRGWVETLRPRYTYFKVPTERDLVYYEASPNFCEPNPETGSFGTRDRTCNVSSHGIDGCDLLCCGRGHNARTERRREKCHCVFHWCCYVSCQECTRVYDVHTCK

Consider “murine Fzd8 CRD Fc fusion (R&D systems) (from UniProt Q61091 28-173)”, for which, in test [1], the ND50, inhibition of Wnt3a-induced TCF reporter luciferase activity in Fzd8:CHOK1 cells stood at 0.027 µg/mL. In the test with human Fzd8 (human), “recombinant Wnt3a protein (R&D systems) (ligand)” had a TCF/LEF reporter (TOPFlash) luciferase activity, normalized to Renilla luciferase of 10.4 fold. “human Wnt8a (from UniProt Q9H1J5 25-351) (ligand)” yielded a Wnt8a mediated SOX9 mRNA reduction in primary chondrocytes, rescue by Fzd8 siRNA (quantitative PCR) with human Fzd8 (human) of 52%.
